{"source": "patent US20220033460A1", "about": "(REPERTOIRE IMMUNE MEDICINES, published 2022)", "binders": {"B1": {"name": "TCR_11 (TCR, V domains shown)", "V domain 1": "EDQVTQSPEALRLQEGESSSLNCSYTVSGLRGLFWYRQDPGKGPEFLFTLYSAGEEKEKERLKATLTKKESFLHITAPKPEDSATYLCAVQAPMSARGSQGNLIFGKGTKLSVKP", "V domain 2": "GAGVSQSPSNKVTEKGKDVELRCDPISGHTALYWYRQSLGQGLEFLIYFQGNSAPDKSGLPSDRFSAERTGGSVSTLTIQRTQQEDSAVYLCASSSKGGGQQTQYFGPGTRLLVLE"}}, "target": "[…] / HLA-B*07:02 tetramer (human; SARS-CoV-2)", "assay": "DNA-barcoded tetramer staining, single-cell sequencing", "data": [{"binder": "B1", "values": [{"measurement": "No. of Cells", "result": 10, "unit": "cells"}]}]}
